Sequences and labels used below:
B1: Rv3503c/Rv3504 probe (dsDNA)
DNA 1: CAGAGACTAGAACGTGTTACAACCGGGAA
DNA 2: TTCCCGGTTGTAACACGTTCTAGTCTCTG
B2: Rv1894c/Rv1895 probe (dsDNA)
DNA 1: ATAGAACTGAAACGTGTTCTAGTTTAGTA
DNA 2: TACTAAACTAGAACACGTTTCAGTTCTAT
B3: Rv0223c probe (dsDNA)
DNA 1: GCGAAACGAGAACGTGTTCCATTATTAGG
DNA 2: CCTAATAATGGAACACGTTCTCGTTTCGC
B4: Rv0953c/Rv0954 probe (dsDNA)
DNA 1: GCGCAGGTGGAACACGTTCTAATTCGGTG
DNA 2: CACCGAATTAGAACGTGTTCCACCTGCGC
B5: Rv3515c/Rv3516 probe (Table 2 prints Rv3515c/Rv3532) (dsDNA)
DNA 1: ACCAAACTAGAACGTGTTACATTTCTTGA
DNA 2: TCAAGAAATGTAACACGTTCTAGTTTGGT
B6: Rv3570c/Rv3571 probe, motif 1 (dsDNA)
DNA 1: GAAAGACTAGAACACGTTCCGATTTGTGT
DNA 2: ACACAAATCGGAACGTGTTCTAGTCTTTC
B7: Rv0940c probe (dsDNA)
DNA 1: GTCAAATTAGAACACGTTCTAATCTCGTT
DNA 2: AACGAGATTAGAACGTGTTCTAATTTGAC
B8: Rv3570c/Rv3571 probe, motif 2 (dsDNA)
DNA 1: TCATAACTAGAACATGTTACAGAAAACCC
DNA 2: GGGTTTTCTGTAACATGTTCTAGTTATGA
B9: Rv3573c/Rv3574 (kstR) 29 bp probe (dsDNA)
DNA 1: TGCCCACTAGAACGTGTTCTAATAGTGCT
DNA 2: AGCACTATTAGAACACGTTCTAGTGGGCA
B10: Rv3520c/Rv3521 probe (dsDNA)
DNA 1: TGTCGAGTAGAACAGGTTCTAACAACGGT
DNA 2: ACCGTTGTTAGAACCTGTTCTACTCGACA
B11: Rv0551c/Rv0552 probe (dsDNA)
DNA 1: TCCAAATTGCAACACGTTCTAGTCTTGCC
DNA 2: GGCAAGACTAGAACGTGTTGCAATTTGGA
B12: Rv3545c/Rv3546 probe (dsDNA)
DNA 1: ATAGTAATGAAACGTGTTCTAGCCTGGCC
DNA 2: GGCCAGGCTAGAACACGTTTCATTACTAT
B13: Rv3531c/Rv3532 probe (dsDNA)
DNA 1: TCGACACTAGAACGTGTTCCTGTTTTGCG
DNA 2: CGCAAAACAGGAACACGTTCTAGTGTCGA
B14: His6-tagged KstRMtb (Mycobacterium tuberculosis TetR-type regulator Rv3574) (natural protein)
chain: MSSANTNTSSAPDAPPRAVMKVAVLAESELGSEAQRERRKRILDATMAIASKGGYEAVQMRAVADRADVAVGTLYRYFPSKVHLLVSALGREFSRIDAKTDRSAVAGATPFQRLNFMVGKLNRAMQRNPLLTEAMTRAYVFADASAASEVDQVEKLIDSMFARAMANGEPTEDQYHIARVISDVWLSNLLAWLTRRASATDVSKRLDLAVRLLIGDQDSA
B15: unlabelled kstR 29 bp probe (dsDNA)
DNA 1: TGCCCACTAGAACGTGTTCTAATAGTGCT
DNA 2: AGCACTATTAGAACACGTTCTAGTGGGCA

The values that follow come from PMC1995591 (Molecular Microbiology, 2007).

One data set addresses T1, His6-KstRMtb (KstR) (Mycobacterium tuberculosis H37Rv, UniProt P96856 22-220).
T1 sequence: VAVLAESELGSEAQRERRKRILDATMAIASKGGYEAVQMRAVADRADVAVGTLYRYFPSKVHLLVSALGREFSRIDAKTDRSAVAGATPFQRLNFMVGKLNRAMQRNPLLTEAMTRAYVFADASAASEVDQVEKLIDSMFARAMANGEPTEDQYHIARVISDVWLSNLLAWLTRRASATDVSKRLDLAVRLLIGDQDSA
In words: EMSA. (A gel shift assay detects complexes by their altered migration in electrophoresis.)
Consider B1, for which the binding result was “binds”.
For B2, the binding result was “binds”.
Turning to B3, the binding result is listed as “no binding”.
Regarding B4, the binding result was “binds”.
Take B5: the binding result is “binds”.
As for B6, the binding result was “binds”.
Same read-out and setting: the value for B7 was “binds”.
On the same count and under the same terms, the value for B8 was “binds”.
For the molecule B9, the binding result is “binds”.
As to B10, the binding result is recorded as “binds”.
On the same count and under the same terms, the result for B11 reads “binds”; that for B12, “binds”.
B13: the binding result was “binds”.

Another data set deals with the molecule itself. In words: SEC.
As to B14, the stoichiometry N (as a rule, a count of units in the complex or per binding partner) came out at 2.

The next data set deals with T1, His6-KstRMtb (KstR). In words: competition.
On to B15, for which the binding result was “binds”.
